Data from patent publication US20130108642A1 (LOS ANGELES BIOMEDICAL RESEARCH INSTITUTE AT HARBOR UCLA …, published 2013).

Key:
recombinant human Grp78 = biological target: T1, recombinant human Grp78 (human, UniProt P11021 19-654); experiment: FAR Western blot with recombinant human Grp78 and anti-Grp78 Ab; bands identified by MALDI-TOF-MS/MS
T1 construct: Soluble probe in the FAR Western blot, detected with anti-Grp78 Ab; also called rGrp78; Grp78p

[1] = biological target: T2, endothelial cell surface GRP78 (human umbilical vein endothelial cells) (human, UniProt P11021 19-654); experiment: pull-down of biotin-labeled endothelial cell surface proteins by yeast cells, immunoblot with anti-GRP78 Ab
T2 construct: whole, on cells; In the adherence and endocytosis assays it is on intact endothelial cells; also called endothelial cell GRP78; Glucose Regulated Protein 78
T2 sequence (P11021 19-654): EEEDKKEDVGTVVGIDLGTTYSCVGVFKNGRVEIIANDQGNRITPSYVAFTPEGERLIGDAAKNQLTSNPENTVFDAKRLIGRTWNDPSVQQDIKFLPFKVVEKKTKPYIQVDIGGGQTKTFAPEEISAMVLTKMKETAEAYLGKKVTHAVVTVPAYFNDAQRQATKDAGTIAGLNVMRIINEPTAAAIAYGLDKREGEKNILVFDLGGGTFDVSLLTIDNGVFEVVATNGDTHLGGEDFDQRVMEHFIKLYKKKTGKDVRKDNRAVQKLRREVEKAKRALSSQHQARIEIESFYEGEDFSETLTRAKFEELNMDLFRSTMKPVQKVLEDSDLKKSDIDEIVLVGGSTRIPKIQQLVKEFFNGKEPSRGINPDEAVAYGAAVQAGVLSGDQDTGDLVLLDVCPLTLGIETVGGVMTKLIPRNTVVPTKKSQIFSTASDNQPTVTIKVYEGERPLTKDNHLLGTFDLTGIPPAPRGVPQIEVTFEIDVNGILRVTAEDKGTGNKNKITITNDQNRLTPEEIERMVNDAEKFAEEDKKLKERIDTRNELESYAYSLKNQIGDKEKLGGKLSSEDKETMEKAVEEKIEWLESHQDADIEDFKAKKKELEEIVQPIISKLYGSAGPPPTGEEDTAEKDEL

T1 sequence (P11021 19-654 limits assumed): as the sequence (P11021 19-654) above

B1: CotH3 (RO3G-11882), native protein in cell wall material from supernatants of R. oryzae germling protoplasts (other)
chain: ASIKFNVIAPNATDVKVSVNGQQVTLTASDANVPYFTGSAEVGASKTYKYVAGGTEESFDRSLDGITNSTLNDFYNRPVTYANLPQLPWPIEKDPQWTRSGSKADIFDDNYIPSVFFHGDDSQVQNVVKNVPADRISGTLTFIGSNYVYSFQNVSFGIHGAGKKHNNAKQSWNWILSGSDTMGNRNFFKLRHMEEDPTQIRERLYSDILHAMGTYANDATMVRLFINNQGFGTFNMLDDITQFSYINAKFYNGKPPATLGPLYDGASGADFLYHPGNLDGYSSWVANTANPNGEAYEALDPLCKAWNETTYTDNTAIANFEKMFDLDRFMRFMVIEYLTADWDGYWMGQTNDGAYRDPTDNNKWYFLDQDFDGTFGVNLAAPEGNAFLDVSYKDFPSRYPGAVMINNLLQNADKKATFEKYLTETVRVLFNNVTLTNRVLALHNFLLPDLEWDRSIVQQSPGINFGWTFDQVTQNLWQGVTAPNNNGGGAAFGLVEYIAAKAQAVAKEFNISIVSQPVGPPSANGTTAAAPAPAAGNSTGKGGNQSISSSASSNKTSAQSTS
notes: Protein on the FAR Western blot, identified by MALDI-TOF-MS/MS of excised bands; also called R. oryzae ligand; R. oryzae surface protein
- binding result (recombinant human Grp78): binds

B2: CotH1 (RO3G-05018) from R. oryzae, on the cell surface of S. cerevisiae (other)
chain: AKVSFKVIAPDAKNRVHVNINGVLVELKASDPDVPYYTGFAELKHGQSYNYVVDGNAEPFKRLLNGSSTKNEFFNRPVTYATNIPELPSILTEGSWTRGDTSNPIWDSNYVPSIFVTGNPREMNELIENVKKNTYKTKITFIGPETINTFEGCTLGLHKPGRKHNDAKQSWIWALPEGQFMANRNWFKIRHMEEDPTQLREKLYADILRKMGTYANEANMVRFFINKEGMGIFNMLDDVIMYSYINAMFYHGDTPEQLGGLYDGASGASFNFPGDFDSFIPNVESPLDQDAIEPFSKAFTSIDFLEDEQVKTIGKYFDYDQFLRFMVMEFLTGDWDGYWQEQTNDGAYIDINDHNKIYYLGQDFDATFGVNLEQKREFVNVSYTEYPKLFPGGVLINRLLQNPGVKKTFENYLKITVQEIFNNATLGPYVTARHEFLAPDLQWDRSIKQRSPGNIFGWTFEQTYENLFEGVTAPGKNSGGADWGLLEWVAAKEKAVKSYLSSSEAADAATVTQVPEAPGTDGTPSESTAWPHANTRFRQAEASNTHKIGTSSPSNFIVKIKQGTVSS
notes: also called S. cerevisiae expressing CotH1
- binding result [1]: no binding

B3: CotH2 (RO3G-08029), native protein in cell wall material from supernatants of R. oryzae germling protoplasts (other)
chain: ASVQFNLIAPSATDVKVSVNGQQVALTASDPNVPYFTGSAEVGGTEESFERSLAGITNSTFNDFYNRPVTYANLPQLPWPIENDPQWTRKGKKAEIFDDNYIPSVFFHGDDSQVQDLVKNVPKDKVTGTLTFIGSNYVHSFANVSFGIHGAGKKHNNAKQSWKWTLSGTDTMGNRNHFKLRHMEEDPTQIRERLYADILHAMGTYANETTMVRLFINGQGFGTFNMLDDITEFSYINAMFYGGNPPATLGPLFDGASGADFIYHPGNLDGYSSWKPNKDNANGEGYEAFDPLCKAWNETDYTDNTAIANFEKMFDTEHFLRFMVIEYLTAHWDGYWMGQTNDGAYRDPSDNNKWYFLDQDFDATFGVNLDVPENKDFISVSYKDFPSRYPAGVMANGLLQNADKKAKFEQYLTETVRVLFNNVTLTNRVLAIHNFLSPDLEWDRSIVQQSPGTNFGWTFEQTSQNLWQGVSAPNNNGGGAEWGLVEYIAAKSQAMAKEFNITIVSEPVGPPAANGTATSTNDGGNTHTAAGESKPASSSESSGSKIASQSVS
notes: as for B1
- binding result (recombinant human Grp78): binds
